Earlier results on 1 substance are cited in article PMC6767322.

pKd: −log10 of the molar value.

The data set has as its target IL-2Rβ/γc (Homo sapiens) (UniProt P14784).
Sequence of UniProt P14784 (P14784 27-240, chain 1 of 2): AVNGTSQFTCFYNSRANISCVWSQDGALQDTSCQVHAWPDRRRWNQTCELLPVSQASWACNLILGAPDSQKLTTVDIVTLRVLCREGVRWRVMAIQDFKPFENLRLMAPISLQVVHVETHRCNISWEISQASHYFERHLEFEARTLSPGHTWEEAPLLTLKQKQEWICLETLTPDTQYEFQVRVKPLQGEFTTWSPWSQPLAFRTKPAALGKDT
Sequence of UniProt P14784 (P31785 23-262, chain 2 of 2, further chain): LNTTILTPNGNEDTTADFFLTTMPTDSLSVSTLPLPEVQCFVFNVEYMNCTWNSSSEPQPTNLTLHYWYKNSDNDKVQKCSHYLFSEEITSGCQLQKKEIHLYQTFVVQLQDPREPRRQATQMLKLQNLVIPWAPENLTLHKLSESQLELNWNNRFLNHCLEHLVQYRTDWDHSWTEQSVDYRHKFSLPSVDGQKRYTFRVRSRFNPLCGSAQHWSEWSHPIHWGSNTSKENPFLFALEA

IL-15 (from UniProt P40933): the pKd (as a rule, the negative decadic logarithm of the Kd, by convention in mol/L) was 7.52.
